Target: recombinant His-p27 (full-length p27Kip1, C-terminal histidine tag) (human) (UniProt P46527)
Test: phage-ELISA, SH3-displaying phage on recombinant His-p27 (multivalent phage, which would enhance binding)

Chain of recombinant His-p27 (full-length p27Kip1, C-terminal histidine tag) (human) (P46527 whole entry): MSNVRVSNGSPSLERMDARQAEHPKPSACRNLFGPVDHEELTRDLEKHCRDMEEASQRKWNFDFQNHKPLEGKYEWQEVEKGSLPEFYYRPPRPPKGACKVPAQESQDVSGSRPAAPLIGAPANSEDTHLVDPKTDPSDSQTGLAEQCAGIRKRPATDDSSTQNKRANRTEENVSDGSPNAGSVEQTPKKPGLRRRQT

Q: Which Kd does the source give for “SH3 domain of Brk displayed on phage (from UniProt Q13882 12-70)” here?
A: 250 nM
